Source: paper doi:10.1101/2023.02.23.529587 (bioRxiv, 2023)

B3: full-length OdhA from Corynebacterium glutamicum ATCC13032 (enzyme, UniProt Q8NRC3 1-1221, looked up)
chain: MSSASTFGQNAWLVDEMFQQFQKDPKSVDKEWRELFEAQGGPNTTPATTEAQPSAPKESAKPAPKAAPAAKAAPRVETKPADKTAPKAKESSVPQQPKLPEPGQTPIRGIFKSIAKNMDISLEIPTATSVRDMPARLMFENRAMVNDQLKRTRGGKISFTHIIGYAMVKAVMAHPDMNNSYDVIDGKPTLIVPEHINLGLAIDLPQKDGSRALVVAAIKETEKMNFSEFLAAYEDIVARSRKGKLTMDDYQGVTVSLTNPGGIGTRHSVPRLTKGQGTIIGVGSMDYPAEFQGASEDRLAELGVGKLVTITSTYDHRVIQGAVSGEFLRTMSRLLTDDSFWDEIFDAMNVPYTPMRWAQDVPNTGVDKNTRVMQLIEAYRSRGHLIADTNPLSWVQPGMPVPDHRDLDIETHNLTIWDLDRTFNVGGFGGKETMTLREVLSRLRAAYTLKVGSEYTHILDRDERTWLQDRLEAGMPKPTQAEQKYILQKLNAAEAFENFLQTKYVGQKRFSLEGAEALIPLMDSAIDTAAGQGLDEVVIGMPHRGRLNVLFNIVGKPLASIFNEFEGQMEQGQIGGSGDVKYHLGSEGQHLQMFGDGEIKVSLTANPSHLEAVNPVMEGIVRAKQDYLDKGVDGKTVVPLLLHGDAAFAGLGIVPETINLAKLRGYDVGGTIHIVVNNQIGFTTTPDSSRSMHYATDYAKAFGCPVFHVNGDDPEAVVWVGQLATEYRRRFGKDVFIDLVCYRLRGHNEADDPSMTQPKMYELITGRETVRAQYTEDLLGRGDLSNEDAEAVVRDFHDQMESVFNEVKEGGKKQAEAQTGITGSQKLPHGLETNISREELLELGQAFANTPEGFNYHPRVAPVAKKRVSSVTEGGIDWAWGELLAFGSLANSGRLVRLAGEDSRRGTFTQRHAVAIDPATAEEFNPLHELAQSKGNNGKFLVYNSALTEYAGMGFEYGYSVGNEDSIVAWEAQFGDFANGAQTIIDEYVSSGEAKWGQTSKLILLLPHGYEGQGPDHSSARIERFLQLCAEGSMTVAQPSTPANHFHLLRRHALSDLKRPLVIFTPKSMLRNKAAASAPEDFTEVTKFQSVINDPNVADAAKVKKVMLVSGKLYYELAKRKEKDGRDDIAIVRIEMLHPIPFNRISEALAGYPNAEEVLFVQDEPANQGPWPFYQEHLPELIPNMPKMRRVSRRAQSSTATGVAKVHQLEEKQLIDEAFEA

What was measured:
[1] = biological target: B3; assay: cryo-EM structure
[2] = biological target: the molecule itself; assay: crystal structure
[3] = biological target: the molecule itself; assay: AUC
[4] = biological target: the molecule itself; assay: crystal structure; remark: listed apart in the source

B1: OdhI from Corynebacterium glutamicum ATCC13032 (natural protein, UniProt Q8NQJ3 1-143, looked up)
chain: MSDNNGTPEPQVETTSVFRADLLKEMESSTGTAPASTGAENLPAGSALLVVKRGPNAGARFLLDQPTTTAGRHPESDIFLDDVTVSRRHAEFRINEGEFEVVDVGSLNGTYVNREPRNAQVMQTGDEIQIGKFRLVFLAGPAE
Question: How did the “stoichiometry N” value [1] turn out when B1 was run?
Answer: 1

B2: full-length KGD from Mycobacterium smegmatis (enzyme, UniProt A0R2B1 1-1227, looked up)
chain: MSSSPSPFGQNEWLVEEMYRKFRDDPSSVDPSWHEFLVDYSPEPTTDSASNGRTTTAAPVTPPTPAPAPAPEPKAAPKPAAKTEAKPAKPAKSATPAKGDESQILRGAAAAVVKNMNASLEVPTATSVRAIPAKLMIDNRVVINNHLKRTRGGKISFTHLLGYAIVQAVKKFPNMNRHFAVVDGKPTAITPAHTNLGLAIDLQGKDGNRSLVVAAIKRCETMRFGQFIAAYEDIVRRARDGKLTAEDFSGVTISLTNPGTLGTVHSVPRLMQGQGAIIGAGAMEYPAEFQGASEERIADLGIGKLITLTSTYDHRIIQGAESGDFLRTIHQLLLDDDFFDEIFRELGIPYEPVRWRTDNPDSIEDKNARVIELIAAYRNRGHLMADIDPLRLDNTRFRSHPDLDVNSHGLTLWDLDREFKVDGFAGVQRKKLRDILSVLRDAYCRHVGVEYTHILEPEQQRWIQERVETKHDKPTVAEQKYILSKLNAAEAFETFLQTKYVGQKRFSLEGAETVIPMMDAVIDQCAEHGLDEVVIAMPHRGRLNVLANIVGKPYSQIFSEFEGNLNPSQAHGSGDVKYHLGATGTYIQMFGDNDIEVSLTANPSHLEAVDPVLEGLVRAKQDLLDTGEEGSDNRFSVVPLMLHGDAAFAGQGVVAETLNLALLRGYRTGGTIHIVVNNQIGFTTAPTDSRSSEYCTDVAKMIGAPIFHVNGDDPEACAWVARLAVDFRQAFKKDVVIDMLCYRRRGHNEGDDPSMTQPYMYDVIDTKRGSRKAYTEALIGRGDISMKEAEDALRDYQGQLERVFNEVRELEKHEIEPSESVEADQQIPSKLATAVDKAMLQRIGDAHLALPEGFTVHPRVRPVLEKRREMAYEGRIDWAFAELLALGSLIAEGKLVRLSGQDTQRGTFTQRHAVIVDRKTGEEFTPLQLLATNPDGTPTGGKFLVYNSALSEFAAVGFEYGYSVGNPDAMVLWEAQFGDFVNGAQSIIDEFISSGEAKWGQLSDVVLLLPHGHEGQGPDHTSGRIERFLQLWAEGSMTIAMPSTPANYFHLLRRHGKDGIQRPLIVFTPKSMLRNKAAVSDIRDFTESKFRSVLEEPMYTDGEGDRNKVTRLLLTSGKIYYELAARKAKENREDVAIVRIEQLAPLPRRRLAETLDRYPNVKEKFWVQEEPANQGAWPSFGLTLPEILPDHFTGLKRISRRAMSAPSSGSSKVHAVEQQEILDTAFG
Question: How did the “stoichiometry N” value [2] turn out when B2 was run?
Answer: 6

Question: With B3 as the binder, how does the “stoichiometry N” value [3] read?
Answer: 6

B4: OdhAΔ97 (domain or fragment, Corynebacterium glutamicum ATCC13032, UniProt Q8NRC3 98-1221, looked up)
chain: KLPEPGQTPIRGIFKSIAKNMDISLEIPTATSVRDMPARLMFENRAMVNDQLKRTRGGKISFTHIIGYAMVKAVMAHPDMNNSYDVIDGKPTLIVPEHINLGLAIDLPQKDGSRALVVAAIKETEKMNFSEFLAAYEDIVARSRKGKLTMDDYQGVTVSLTNPGGIGTRHSVPRLTKGQGTIIGVGSMDYPAEFQGASEDRLAELGVGKLVTITSTYDHRVIQGAVSGEFLRTMSRLLTDDSFWDEIFDAMNVPYTPMRWAQDVPNTGVDKNTRVMQLIEAYRSRGHLIADTNPLSWVQPGMPVPDHRDLDIETHNLTIWDLDRTFNVGGFGGKETMTLREVLSRLRAAYTLKVGSEYTHILDRDERTWLQDRLEAGMPKPTQAEQKYILQKLNAAEAFENFLQTKYVGQKRFSLEGAEALIPLMDSAIDTAAGQGLDEVVIGMPHRGRLNVLFNIVGKPLASIFNEFEGQMEQGQIGGSGDVKYHLGSEGQHLQMFGDGEIKVSLTANPSHLEAVNPVMEGIVRAKQDYLDKGVDGKTVVPLLLHGDAAFAGLGIVPETINLAKLRGYDVGGTIHIVVNNQIGFTTTPDSSRSMHYATDYAKAFGCPVFHVNGDDPEAVVWVGQLATEYRRRFGKDVFIDLVCYRLRGHNEADDPSMTQPKMYELITGRETVRAQYTEDLLGRGDLSNEDAEAVVRDFHDQMESVFNEVKEGGKKQAEAQTGITGSQKLPHGLETNISREELLELGQAFANTPEGFNYHPRVAPVAKKRVSSVTEGGIDWAWGELLAFGSLANSGRLVRLAGEDSRRGTFTQRHAVAIDPATAEEFNPLHELAQSKGNNGKFLVYNSALTEYAGMGFEYGYSVGNEDSIVAWEAQFGDFANGAQTIIDEYVSSGEAKWGQTSKLILLLPHGYEGQGPDHSSARIERFLQLCAEGSMTVAQPSTPANHFHLLRRHALSDLKRPLVIFTPKSMLRNKAAASAPEDFTEVTKFQSVINDPNVADAAKVKKVMLVSGKLYYELAKRKEKDGRDDIAIVRIEMLHPIPFNRISEALAGYPNAEEVLFVQDEPANQGPWPFYQEHLPELIPNMPKMRRVSRRAQSSTATGVAKVHQLEEKQLIDEAFEA
Question: With B4 as the binder, how does the “stoichiometry N” value [4] read?
Answer: 6
